According to paper PMC5638086, “Assessment of the protein interaction between coagulation factor XII and corn trypsin inhibitor by molecular docking and biochemical validation” (Journal of Thrombosis and Haemostasis, 2017):
Substitutions are numbered along the chain they refer to. In names and notes the source's numbering stands. Values belong to the molecule of their own block, whether it stands above or below them. Where a SMILES comes first, the peptide text is derived from it. Bridges are numbered along the chain shown (N, C = ends). Where no end group is shown, it is not given here.

What was measured:
[1] = target: T1, α‐FXIIa (Homo sapiens, UniProt P00748); experiment: α‐FXIIa enzymatic assay (S‐2302 chromogenic substrate cleavage, pNA release); type: biochemical; details: for IC50 / pIC50 ± SE: 33 °C, SE of the fit, n = 3–5 independent experiments; for IC50 (M): IC50 corresponding to the pIC50
T1 construct: purchased Enzyme Research Laboratories (Swansea, UK)
T1 sequence (P00748 373-615 limits assumed): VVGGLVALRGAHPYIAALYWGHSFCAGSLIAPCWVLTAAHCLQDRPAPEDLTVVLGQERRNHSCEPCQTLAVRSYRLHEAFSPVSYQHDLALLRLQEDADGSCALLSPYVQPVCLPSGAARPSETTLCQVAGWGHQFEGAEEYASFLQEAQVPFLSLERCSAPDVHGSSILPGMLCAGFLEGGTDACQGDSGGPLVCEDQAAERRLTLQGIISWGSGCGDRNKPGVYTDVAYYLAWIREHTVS
T1 sequence (P00748 20-372 partner limits assumed): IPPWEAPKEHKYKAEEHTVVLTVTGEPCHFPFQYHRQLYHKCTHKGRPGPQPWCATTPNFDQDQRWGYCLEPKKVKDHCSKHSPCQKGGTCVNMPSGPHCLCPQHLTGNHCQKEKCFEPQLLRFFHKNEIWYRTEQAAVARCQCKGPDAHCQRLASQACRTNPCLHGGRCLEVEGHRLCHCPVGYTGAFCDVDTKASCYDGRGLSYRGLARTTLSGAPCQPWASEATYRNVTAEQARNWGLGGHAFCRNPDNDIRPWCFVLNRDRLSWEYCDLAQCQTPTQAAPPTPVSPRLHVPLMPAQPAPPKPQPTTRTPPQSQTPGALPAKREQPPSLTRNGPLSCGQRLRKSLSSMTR
Method: The enzymatic activity of α‐FXIIa was measured by monitoring the amount of pNA chromophore released from substrate H‐D‐Pro‐Phe‐Arg‐pNA (S‐2302). Assays were performed in a 100‐μL volume at 33 °C in 96‐well plates in a Perkin Elmer (Seer Green, UK) Envision plate reader, and pNA release was followed over a period of 6 h by reading the absorbance at 405 nm. Absorbance values were converted to pNA concentrations by comparison with a standard curve obtained under exactly the same instrument conditions. All absorbance values were within the linear measurement range of the instrument. Initial rates were calculated on the basis of the first 30 min of incubation. To assess the K M, concentrations of substrate peptide between 0.1 mM and 0.6 mM were incubated with 10 nM α‐FXIIa, enzymatic activity was measured as described above, and data were analyzed by non‐linear regression with the Michaelis–Menten algorithm (GRAPHPAD PRISM, version 6.04). To assess the inhibitory mechanism of CTI, 30 nM CTI was incubated with these same concentrations of substrate peptide, the reaction was initiated by the addition of 10 nM α‐FXIIa, enzymatic activity was measured as described above, and data were analyzed by non‐linear regression with the Michaelis–Menten algorithm (GRAPHPAD PRISM, version 6.04) and by linear regression after Lineweaver–Burk transformation. To assay inhibitors, concentrations of CTI variant proteins between 10^−8 M and 10^−5 M or concentrations of peptides between 10^−6 M and 10^−3 M were incubated with 200 μM substrate peptide, the reaction was initiated by addition of 10 nM α‐FXIIa, enzymatic activity was measured as described above, and IC50 values were determined by non‐linear regression analysis (GRAPHPAD PRISM, version 6.04) using the log[inhibitor] versus response – variable slope algorithm with a bottom constraint.

[2] = target: Full length activated FXIIa (α‐FXIIa) (UniProt P00748)
[3] = synthetic peptides 10^−6 M to 10^−3 M, 200 μM S‐2302, 10 nM α‐FXIIa, initial rate, SEM
[4] = synthetic peptides 10^−6 M to 10^−3 M
[5] = synthetic peptides 10^−6 M to 10^−3 M, 200 μM S‐2302, 10 nM α‐FXIIa, initial rate
[6] = CTI variant proteins 10^−8 M to 10^−5 M, 200 μM S‐2302, 10 nM α‐FXIIa, initial rate of first 30 min, A405, SEM

IC50 of inhibition of α‐FXIIa enzymatic activity (S‐2302 cleavage) [2]: 4.9 µM
pIC50 of inhibition of α‐FXIIa enzymatic activity (S‐2302 cleavage) [2]: 5.31
Molecule: rec‐CTI L35A (natural protein)

IC50 of inhibition of α‐FXIIa enzymatic activity (S‐2302 cleavage) [2]: 0.12 µM
pIC50 of inhibition of α‐FXIIa enzymatic activity (S‐2302 cleavage) [2]: 6.94
Molecule: recombinant CTI (rec‐CTI) (natural protein)

IC50 of inhibition of α‐FXIIa enzymatic activity (S‐2302 cleavage) [2]: 0.16 µM
pIC50 of inhibition of α‐FXIIa enzymatic activity (S‐2302 cleavage) [2]: 6.8
Molecule: rec‐CTI R27A/R42A (natural protein)

IC50 of inhibition of α‐FXIIa enzymatic activity (S‐2302 cleavage) [2]: 19 µM
pIC50 of inhibition of α‐FXIIa enzymatic activity (S‐2302 cleavage) [2]: 4.72
Molecule: rec‐CTI W22A (natural protein)

IC50 of inhibition of α‐FXIIa enzymatic activity (S‐2302 cleavage) [2]: 0.48 µM
pIC50 of inhibition of α‐FXIIa enzymatic activity (S‐2302 cleavage) [2]: 6.32
Molecule: rec‐CTI G30W (natural protein)

IC50 of inhibition of α‐FXIIa enzymatic activity (S‐2302 cleavage) [2]: 11 µM
pIC50 of inhibition of α‐FXIIa enzymatic activity (S‐2302 cleavage) [2]: 4.98
Molecule: rec‐CTI R42A/R43A (natural protein)

IC50 of inhibition of α‐FXIIa enzymatic activity (S‐2302 cleavage) [2]: 0.14 µM
pIC50 of inhibition of α‐FXIIa enzymatic activity (S‐2302 cleavage) [2]: 6.85
Molecule: rec‐CTI E39A (natural protein)

IC50 of inhibition of α‐FXIIa enzymatic activity (S‐2302 cleavage) [2]: 13 µM
pIC50 of inhibition of α‐FXIIa enzymatic activity (S‐2302 cleavage) [2]: 4.89
Molecule: rec‐CTI G32W (natural protein)

IC50 of inhibition of α‐FXIIa enzymatic activity (S‐2302 cleavage) [2]: 0.11 µM
pIC50 of inhibition of α‐FXIIa enzymatic activity (S‐2302 cleavage) [2]: 6.97
Molecule: rec‐CTI W37A (natural protein)

IC50 of inhibition of α‐FXIIa enzymatic activity (S‐2302 cleavage) [2]: 0.26 µM
pIC50 of inhibition of α‐FXIIa enzymatic activity (S‐2302 cleavage) [2]: 6.58
Molecule: rec‐CTI R27A/E39A (natural protein)

IC50 of inhibition of α‐FXIIa enzymatic activity (S‐2302 cleavage) [2]: 0.19 µM
pIC50 of inhibition of α‐FXIIa enzymatic activity (S‐2302 cleavage) [2]: 6.72
Molecule: rec‐CTI R42A (natural protein)

IC50 of inhibition of α‐FXIIa enzymatic activity (S‐2302 cleavage) [2]: 0.17 µM
pIC50 of inhibition of α‐FXIIa enzymatic activity (S‐2302 cleavage) [2]: 6.78
Molecule: rec‐CTI R27A (natural protein)

Second part, the molecule before the results:

Molecule: YVTSRTAGIGPRLPWPELKRR [CTI(23–43)]
IC50 [1, 3]: 1150 µM

Molecule: RWYVTSRTAGIGPRLPWPELKRR [CTI(21–43)]
IC50 [1, 3]: 457 µM

Molecule: glutathione‐S‐transferase [GST, reference compound]
Inhibition of α‐FXIIa, result in words ([1]; 200 μM substrate peptide, 10 nM α‐FXIIa): did not inhibit
pIC50 ± SE ([1]; CTI variant proteins 10^−8 M to 10^−5 M, 200 μM S‐2302, 10 nM α‐FXIIa, initial rate of first 30 min, A405): NIA
IC50 (M) ([1]; CTI variant proteins 10^−8 M to 10^−5 M, 200 μM S‐2302, 10 nM α‐FXIIa): NIA

Molecule: CC[C@H](C)[C@@H]1NC(=O)CNC(=O)[C@H](C)NC(=O)[C@H]([C@@H](C)O)NC(=O)[C@H](CCCNC(=N)N)NC(=O)[C@H](CO)NC(=O)[C@H]([C@@H](C)O)NC(=O)[C@H](C(C)C)NC(=O)[C@H](Cc2ccc(O)cc2)NC(=O)[C@H](Cc2c[nH]c3ccccc23)NC(=O)[C@H](CCCNC(=N)N)NC(=O)[C@@H](N)CSSC[C@@H](C(=O)O)NC(=O)[C@H](CCCNC(=N)N)NC(=O)[C@H](CCCNC(=N)N)NC(=O)[C@H](CCCCN)NC(=O)[C@H](CC(C)C)NC(=O)[C@H](CCC(=O)O)NC(=O)[C@@H]2CCCN2C(=O)[C@H](Cc2c[nH]c3ccccc23)NC(=O)[C@@H]2CCCN2C(=O)[C@H](CC(C)C)NC(=O)[C@H](CCCNC(=N)N)NC(=O)[C@@H]2CCCN2C(=O)CNC1=O [CTI(20–44)] (H-CRWYVTSRTAGIGPRLPWPELKRRC-OH; disulfide 1-25; N-terminus and C-terminus assumed)
Fold reduction in inhibitory activity as compared with rec‐CTI ([1]; synthetic peptides, relative to recombinant CTI): 2416 fold

Molecule: RWYVTSRTAGIGPRLPWPELKR [CTI(21–42)]
IC50 [1, 3]: 200 µM

Molecule: GISTAGPWRRRPPELLKVTY [Scrambled, scrambled control peptide]
IC50 (M) [1, 4]: NIA
pIC50 ± SE [1, 5]: NIA

Molecule: IGPRLPWP [CTI(31–38), eight‐mer peptide spanning the loop between helices α1 and α2 (CTI residues 31–38)]
IC50 (M) [1, 4]: NIA
pIC50 ± SE [1, 5]: NIA

B1: L35A: rec‐CTI variant, alanine substitution of Leu35 (protein)
chain: SAGTSCVPGWAIPHNPLPSCRWYVTSRTCGIGPRAPWPELKRRCCRELADIPAYCRCTALSILMDGAIPPGPDAQLEGRLEDLPGCPREVQRGFAATLVTEAECNLATISGVAECPWILGGGTMPSK
modifications: assayed as His6-GST fusion (tag omitted); disulfides
pIC50 ± SE [1, 6]: 5.31 ± 0.05

B2: W37A: rec‐CTI variant, alanine substitution of Trp37 (protein)
chain: B1 chain with A35L, W37A
modifications: assayed as His6-GST fusion (tag omitted); disulfides
pIC50 ± SE [1, 6]: 6.97 ± 0.06

B3: E39A: rec‐CTI variant, alanine substitution of Glu39 (protein)
chain: B1 chain with A35L, E39A
modifications: assayed as His6-GST fusion (tag omitted); disulfides
pIC50 ± SE [1, 6]: 6.85 ± 0.06

B4: R27A/E39A: rec‐CTI double substitution R27A/E39A (protein)
chain: B1 chain with R27A, A35L, E39A
modifications: assayed as His6-GST fusion (tag omitted); disulfides
pIC50 ± SE [1, 6]: 6.58 ± 0.08

B5: R27A: rec‐CTI variant, alanine substitution of Arg27 (protein)
chain: B1 chain with R27A, A35L
modifications: assayed as His6-GST fusion (tag omitted); disulfides
pIC50 ± SE [1, 6]: 6.78 ± 0.04

B6: R42A: rec‐CTI variant, alanine substitution of Arg42 (protein)
chain: B1 chain with A35L, R42A
modifications: assayed as His6-GST fusion (tag omitted); disulfides
pIC50 ± SE [1, 6]: 6.72 ± 0.15

B7: G30W: rec‐CTI variant, replacement of Gly30 with a tryptophan (protein)
chain: B1 chain with G30W, A35L
modifications: assayed as His6-GST fusion (tag omitted); disulfides
pIC50 ± SE [1, 6]: 6.32 ± 0.06

B8: W22A: rec‐CTI variant, alanine substitution of Trp22 (protein)
chain: B1 chain with W22A, A35L
modifications: assayed as His6-GST fusion (tag omitted); disulfides
pIC50 ± SE [1, 6]: 4.72 ± 0.24

B9: R42A/R43A: rec‐CTI R42A/R43A double mutant (protein)
chain: B1 chain with A35L, R42A, R43A
modifications: assayed as His6-GST fusion (tag omitted); disulfides
pIC50 ± SE [1, 6]: 4.98 ± 0.02

B10: R27A/R42A: rec‐CTI double substitution R27A/R42A (protein)
chain: B1 chain with R27A, A35L, R42A
modifications: assayed as His6-GST fusion (tag omitted); disulfides
pIC50 ± SE [1, 6]: 6.80 ± 0.05

B11: G32W: rec‐CTI variant, replacement of Gly32 with tryptophan (protein)
chain: B1 chain with G32W, A35L
modifications: assayed as His6-GST fusion (tag omitted); disulfides
pIC50 ± SE [1, 6]: 4.89 ± 0.06
